# In US9518084B2, “Epitope tag for affinity-based applications” (VIB VZW, priority 2010, dated 2016):
# How the values were obtained:
# [1] = tested on: EPEA (SEQ ID NO:1)-tagged Rev protein; assay: In vivo detection of EPEA-tagged Rev in transfected HeLa cells by confocal microscopy; assay type: cell-based, HIV; conditions: nanobody fused to mKO1 or GFP, GYQDYEPEA and EPEA tags
# Excerpt: In another set of experiments, we explored the use of the EPEA (SEQ ID NO:1) tag to detect/visualize the expression of recombinant proteins within a (living) eukaryotic cell. […] Cells that are double-transfected with Rev-[sequence] (SEQ ID NO:10) or Rev-[sequence]
# The two different tags [sequence] (SEQ ID NO:2) and EPEA (SEQ ID NO:1) were C-terminal fused to Rev by PCR using Takara Ex Taq polymerase (TAKARA BIO INC).
# HeLa, human epithelial cells were maintained using standard procedures until confluent in DMEM medium with 10% fetal calf serum. For transfection of plasmid DNA in HeLa, cells were harvested by a Trypsin/EDTA treatment, counted and plated onto glass bottom microwell dishes (MatTek corporation). Transfections were preformed according to manufacturer's manual: the 4×10^5 cells were seeded in a 35 mm dish. […]
# Transfected HeLa cells were imaged with a laser scanning SP5 confocal microscope (Leica Microsystems) equipped with an AF 6000 microscope and an AOBS, using a HCX PL APO×63 (NA 1.2) water immersion objective magnification. GFP was monitored with the Ar laser using the 488-nm line for excitation, and emission was detected between 492 and 570 nm. mKusabira orange fluorescent protein (mKO) was imaged using the DPSS-561 nm laser for excitation, and emission was detected between 570 and 675 nm.
# [2] = tested on: Nb458-gaaEPEA (SEQ ID NO:8); assay: Solid phase ELISA, bivalent versus monovalent NbSyn2 alkaline phosphatase conjugate; assay type: binding; conditions: alkaline phosphatase conjugates, dilutions 1/250 to 1/4000, OD405
# Nb458-gaaEPEA (SEQ ID NO:8), sequence (as listed by the source): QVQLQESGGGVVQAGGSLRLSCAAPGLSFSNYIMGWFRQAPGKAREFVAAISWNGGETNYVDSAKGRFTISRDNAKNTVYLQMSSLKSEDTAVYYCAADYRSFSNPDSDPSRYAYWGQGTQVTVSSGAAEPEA
molecule,measurement,setting,value
"NbSyn1a: Nanobody that specifically binds to α-synuclein, 126 amino acids, SEQ ID NO:24 (protein, Nb_Syn1a) VHH: EVQLVESGGGSVQAGGSLSLACAPSGLNASSYCMGWFRQSPGKEREGVARINGNAGIKTAYADSVKDRFTLSRDNAKNTVYLQMNSLKAEDSAIYFCAAKSSPGYCGGNWDNFGYWGQGTQVTVSS",Recognition of tagged Rev in double-transfected cells (colocalization in the nucleus),[1],recognized in vivo
"biNbSyn2: bivalent version of NbSyn2 (SEQ ID NO:68) with a GGGGSGGGS linker between both NbSyn2 sequences (protein, Nanobody biNbSyn2) QVQLVESGGGSVQAGGSLRLSCAASGIDSSSYCMGWFRQRPGKEREGVARINGLGGVKTAYADSVKDRFTISRDNAENTVYLQMNSLKPEDTAIYYCAAKFSPGYCGGSWSNFGYWGQGTQVTVSSGGGGSGGGSQVQLQESGGGSVQAGGSLRLSCAASGIDSSSYCMGWFRQRPGKEREGVARINGLGGVKTAYADSVKDRFTISRDNAENTVYLQMNSLKPEDTAIYYCAAKFSPGYCGGSWSNFGYWGQGTQVTVSSHHHHHH",Sensitivity of ELISA detection compared with monovalent NbSyn2-AP conjugate,[2],sensitivity of detection increases
